In article PMC11849073, “Specific recognition mechanism of an antibody to sulfated tyrosine and its potential use in biological research” (The Journal of Biological Chemistry, 2025):
Values joined by “and” are separate entries in the source; they are usually repeats but may differ in a detail not shown here. Equal values may be shown once. “Also recorded” adds a separate entry of the source. Read-outs that look alike come from different tables or passages of the source.

Key:
[1] = test system: endogenous CCR5 expressed on TZM-bl; assay: Flow cytometry binding to TZM-bl cells; type: cell-based; details: BA8 full-length IgG, read-out: BC50 (the source's name)
Description: Cells were aliquoted into 96 Well Conical (V) Bottom Plates (ThermoFisher Scientific) at 50,000 cells per sample and fixed with 2% paraformaldehyde at 4 °C for 30 min. After a PBS wash, 50 μl of goat anti-rabbit IgG Alexa 488 (Invitrogen) diluted 1000-fold by PBS were added to the sample. After incubation at 4 °C for 30 min, PBS washed cells were diluted with PBS containing 2% fetal bovine serum, and flow cytometry was performed using a FACS Canto system (BD Biosciences).

[2] = test system: sulfated CCR5 on HEK293 cells transfected with CCR5 + TPST2 (C2); assay: Flow cytometry binding to C2 cells; type: cell-based
Description: (§1) We prepared model cells with transient overexpression to examine whether BA8 can recognize sulfated full-length CCR5. As referred in the Introduction section, previous research has shown that protein tyrosine sulfotransferases (TPSTs) are responsible for tyrosine sulfation ([10], [11], [12]). Those two isoforms of TPST (TPST1 and TPST2) and CCR5 genes were transiently transfected in the following five combinations to HEK293 cells: Negative Control (NC); CCR5 (C); CCR5 + TPST1 (C1); CCR5 + TPST2 (C2); and CCR5 + TPST1 + TPST2 (C12). Each protein contained the following tag sequences at the C-terminus: CCR5 – FLAG, TPST1 – HA, and TPST2 – Myc. The overexpression of each protein was confirmed by western blotting using tag antibodies (Fig. 5, A and B).
(§2) We conducted flow cytometry using these cells to confirm that BA8 can recognize sulfated CCR5 expressed on the cell surface (Fig. 5D).
To quantitatively evaluate the binding ability of BA8 to C2 and C12 cells, we plotted the median fluorescence intensity of antibody binding against BA8 concentration (Fig. 5E). An increase in the signal with increasing antibody concentration was confirmed, and the binding activity was quantitatively evaluated by fitting with a sigmoid function.
HEK293 cells stored in liquid nitrogen were initiated into the culture by thawing. […]

[3] = test system: YU2 (CCR5 tropic strain) strain in TZM-bl cells; assay: Pseudoviral assay (single-round viral infective assay) in TZM-bl cells; type: cell-based, HIV; details: 48 h post-infection, luciferase read-out, BA8 up to 50 μg/ml (approximately 350 nM)
Description: Subsequently, we conducted a pseudoviral test using TZM-bl cells.
The anti-HIV activity of BA8, isotype control antibody, and Maraviroc (Sigma-Aldrich) in a single-round viral infective assay against the YU2 (CCR5 tropic strain) strain in TZM-bl cells. At 48 h post-infection, cells were lysed, and relative light units were measured using a Steady-Glo luciferase assay system and GloMax Discover microplate reader (Promega).

[4] = test system: sulfated N-terminal peptide of CCR5; assay: SPR kinetic interaction analysis of BA8 Fab (wild type and mutants) with the sulfated peptide; type: binding; details: SPR Biacore 8K, PBS 0.005% Tween 20, global fitting
Description: To quantitatively evaluate the intermolecular interaction between BA8 and the sulfated N-terminal peptide of CCR5, we prepared a Fab fragment of BA8 as a recombinant protein (Fig. S2, A and B) and conducted kinetic interaction analysis using SPR. The Fab was immobilized on a sensor chip using amine coupling, and the synthesized sulfated and non-sulfated N-terminal peptides of CCR5 were used as the analytes.
To further dissect how molecular recognition occurs, we evaluated the contribution of individual residues of BA8 to the recognition of the sulfated peptide. We analyzed the crystal structure using the PDB PISA server, and we conducted mutation analyses in which the residues predicted to form hydrogen bonds or located at the interface were mutated to alanine (Fig. 3B).
The bindings of the peptides to Fabs were analyzed using a Biacore 8K instrument (Cytiva). Each Fab was immobilized on the surface of a CM5 sensor chip (Cytiva) by the amine-coupling method according to the manufacturer’s instructions in the condition of pH 5.5. The immobilization level reached to about 3000 Response Unit (RU). PBS containing 0.005% Tween 20 was used as the running buffer. The kinetic data were obtained by injection of increasing concentrations of peptides into the sensor chip. The flow rate of the analyte were set to 30 μl/min. The data were analyzed using BIAevaluation software (Cytiva), and the binding affinity as well as kinetic parameters were calculated by a global fitting of the curves.

[5] = test system: CCR5 on HEK293 cells transfected with CCR5 (C) or CCR5 + TPST1 (C1); assay: Flow cytometry binding to C and C1 cells; type: cell-based; details: cells overexpressing only CCR5 or CCR5 and TPST1
Description: as §1, §2
HEK293 cells stored in liquid nitrogen were initiated into the culture by thawing. After the third passage, at 70% confluency, they were transfected with pCAGGS expression vectors containing CCR5, TPST1, or TPST2 using Lipofectamine 3000 Transfection Reagent (ThermoFisher Scientific). To exclude artifacts caused by the transfection operation itself, empty vectors without the objective protein were transfected if the protein was not to be expressed. […]

[6] = test system: CCR5 sulfated by TPST2 in cell lysates; assay: Western blotting of transfected HEK293 cell lysates with BA8 as detection antibody; type: binding; details: 100 nM BA8 (full-length IgG) as detection antibody; lysates of NC, C, C1, C2, C12 cells
Description: as §1
We prepared recombinant BA8 as a full-length IgG form for subsequent cell-based assays (Fig. S2, C and D).
The cell lysate suspended in RIPA Buffer was placed on ice for 30 min, followed by centrifugation at 20,000 × g for 20 min. […] Protein bands were detected by incubating the membranes with anti-DDDDK-tag mAb-HRP-DirecT, anti-HA tag mAb-HRP-DirecT, anti-Myc tag mAb-HRP-DirecT (all from MBL Lifescience), or each IgG followed by incubation with horseradish peroxidase (HRP)-conjugated anti-rabbit IgG, HRP-linked antibody (Cell Signaling Technology) at room temperature for 30 min. […]

[7] = Fab immobilized on CM5 chip, sulfated peptide as analyte

B1: BA8: rabbit antibody clone from phage display that specifically recognizes the sulfated N-terminal peptide of CCR5 (antibody, V domains shown)
VH: QSLEESGGGLFKPTDTLTLTCTVSGFSLSSYSIRWVRQAPGNGLEWIGAIGSGGNAYYTSWAKSRSTITRNTNENTVTLKMTSLTVADTATYFCARGGINFGIWGPGTLVTVSS
VL: AAVLTQTPSPVSAAVGSTVTINCQSSQSVYSKNWLSWFQQKPGQPPKQLIYSASTLDSGVPSRFSGSGSGTQFTLTISGVQCDDAATYYCQGTYGDASAFGGGTEVVVK
B1 was tested, and the EC50 [1] was 49 nM and ~50 nM, the EC50 ([2]; C2 cells, BA8 full-length IgG, median fluorescence intensity vs concentration, sigmoid fit, read-out: half-maximal binding concentration (BC50)) was 3.64 nM and the EC50 ([2]; HEK293 overexpression system, C2 or C12 not specified, read-out: BC50 in overexpression system using HEK293 cells (approximate, discussion)) was about 3 nM. The “inhibition of HIV infection, in words” value [3] was “did not significantly inhibit the infection; also recorded: did not show inhibitory activity”, the kon ([4]; Fab immobilized on CM5 chip by amine coupling (~3000 RU), sulfated peptide as analyte (2 to 162 nM; 20 nM to 1620 nM for the weak mutants of Fig. 3), 30 μl/min) was 251000 mol/L/s and the Kd [4, 7] was 0.809 nM. For the same molecule, the koff [4, 7] was 0.000203 s⁻¹, the “binding to C and C1 cells in flow cytometry, in words” value [5] was “slight binding” and the “recognition of CCR5 in cell lysates by western blotting, in words” value [6] was “specifically recognized CCR5 in the lysates of cells C2 and C12”.
